Source: the RNAGym collection of RNA variant scans (doi:10.1093/molbev/msab373)

B1: Azoarcus group I ribozyme (parent)
chain: GUGCCUUGCGCCGGGAAACCACGCAAGGGAUGGUGUCAAAUUCGGCGAAACCUAAGCGCCCGCCCGGGCGUAUGGCAACGCCGAGCCAAGCUUCGGCGCCUGCGCCGAUGAAGGUGUAGAGACUAGACGGCACCCACCUAAGGCAAACGCUAUGGUGAAGGCAUAGUCCAGGGAGUGGCGAAAGUCACACAAACCGG

Variants of: B1
Test: reverse-splicing fitness (ratio to wild type); higher = more active; in vitro selection; Mg2+ level not given
Procedure, shortened: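 An in vitro group I ribozyme library with randomized positions was T7-transcribed and gel-purified. In triplicate, 10 pmol RNA in EPPS pH 7.5 was reacted with 50 pmoles of a 30-nt RNA substrate for 1 h at 37 °C across several added MgCl2 levels (1–48 mM), then stopped with EDTA. Products were reverse transcribed from a substrate-complementary primer, PCR-amplified and sequenced (HiSeq 4000). Fitness is a variant's read proportion after selection over that before, normalised to wild type.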

Row | Variant | reverse-splicing fitness
1 | C82G A111G A120C A145G C150G C169A | 0.00978
2 | C82G A111G A120C A145G C150G C169U | 0.00987
3 | C82G A111G A120C A145G C150G C169G | 0.00764
4 | C82G A111G A120C A145U C150G C169U U176A | 0.0078
5 | C82G A111G A120C A145U C150G C169U U176G | 0.00604
6 | C82G A111G A120C A145U C150G C169U U176C | 0.0131
7 | C82G A111G A120C A145U C169A | 0.00712
8 | C82G A111G A120C A145U C169U | 0.0157
9 | C82G A111G A120C A145U C169G | 0.00799
10 | C82G A111G A120C A145G | 0.0871
11 | C82G A111G A120C A145U | 0.0901
12 | C82G A111G A120G A145G C150A U176A | 0.0107
13 | C82G A111G A120G A145G C150A U176C | 0.0232
14 | C82G A111G A120G A145G C150A U176G | 0.0096
15 | C82G A111G A120C A145U C150G C169A | 0.00918
16 | C82G A111G A120C A145U C150G C169U | 0.00899
17 | C82G A111G A120C A145U C150G C169G | 0.00697
18 | C82G A111G A120C A145C C169U U176A | 0.0142
19 | C82G A111G A120C A145C C169U U176C | 0.01
20 | C82G A111G A120C A145C C169U U176G | 0.00475
21 | C82G A111G A120C C150U C169U U176C | 0.017

Row | Variant | reverse-splicing fitness
22 | C82G A111G A120C C150U C169U U176G | 0.00815
23 | C82G A111G A120C C150U C169U U176A | 0.0166
24 | C82G A111G A120C C150G U176G | 0.00412
25 | C82G A111G A120C C150G U176A | 0.00594
26 | C82G A111G A120C C150G U176C | 0.0121
27 | C82G A111G A120C A145G C150G C169G U176C | 0.0112
28 | C82G A111G A120C A145G C150G C169G U176G | 0.00653
29 | C82G A111G A120C A145G C150G C169G U176A | 0.0109
30 | C82G A111G A120G A145C C150A U176G | 0.00588
31 | C82G A111G A120G A145C C150A U176C | 0.0132
32 | C82G A111G A120G A145C C150A U176A | 0.0127
33 | C82G A111G A120G A145G C150U C169G U176C | 0.0201
34 | C82G A111G A120G A145G C150U C169G U176G | 0.00532
35 | C82G A111G A120G A145G C150U C169G U176A | 0.0139
36 | C82G A111G A120C C169A U176C | 0.0162
37 | C82G A111G A120C C169A U176G | 0.00532
38 | C82G A111G A120C C169A U176A | 0.017
39 | C82G A111G A120G A145C C150U U176A | 0.0118
40 | C82G A111G A120G A145C C150U U176C | 0.0149
41 | C82G A111G A120G A145C C150U U176G | 0.00599
42 | C82G A111G A120C A145G U176G | 0.00851

Row | Variant | reverse-splicing fitness
43 | C82G A111G A120C A145G U176C | 0.0418
44 | C82G A111G A120C A145G U176A | 0.0236
45 | C82G A111G A120C A145U C150A C169U | 0.00952
46 | C82G A111G A120C A145U C150A C169A | 0.0104
47 | C82G A111G A120C A145U C150A C169G | 0.00822
48 | C82G A111G A120C A145C C169A U176G | 0.00459
49 | C82G A111G A120G A145C C150U C169A U176G | 0.00578
50 | C82G A111G A120G A145C C150U C169A U176A | 0.0167
51 | C82G A111G A120G A145C C150U C169A U176C | 0.00841
52 | C82G A111G A120C A145G C150U C169U U176G | 0.00664
53 | C82G A111G A120C A145G C150U C169U U176C | 0.0145
54 | C82G A111G A120C A145G C150U C169U U176A | 0.0133
55 | C82G A111G A120C A145U C169G U176A | 0.0157
56 | C82G A111G A120C A145U C169G U176G | 0.00477
57 | C82G A111G A120C A145U C169G U176C | 0.0163
58 | C82G A111G A120C A145G C169A U176C | 0.0188
59 | C82G A111G A120C A145G C169A U176A | 0.0151
60 | C82G A111G A120C A145G C169A U176G | 0.00503
61 | C82G A111G A120C C150U C169U | 0.0144
62 | C82G A111G A120C C150U C169G | 0.00909
63 | C82G A111G A120C C150U C169A | 0.0102

Row | Variant | reverse-splicing fitness
64 | C82G A111G A120C A145U C150U C169A | 0.01
65 | C82G A111G A120C A145U C150U C169G | 0.0094
66 | C82G A111G A120C A145U C150U C169U | 0.0124
67 | C82G A111G A120G A145G C150A C169G U176C | 0.0272
68 | C82G A111G A120G A145G C150A C169G U176A | 0.0177
69 | C82G A111G A120G A145G C150A C169G U176G | 0.00618
70 | C82G A111G A120C A145G C150G C169A U176C | 0.0151
71 | C82G A111G A120C A145G C150G C169A U176A | 0.0153
72 | C82G A111G A120C A145G C150G C169A U176G | 0.0091
73 | C82G A111G A120C C169U | 0.0179
74 | C82G A111G A120C C169A | 0.0101
75 | C82G A111G A120C C169G | 0.00841
76 | C82G A111G A120C A145G C150U C169G U176G | 0.00597
77 | C82G A111G A120C A145G C150U C169G U176A | 0.0174
78 | C82G A111G A120C A145G C150U C169G U176C | 0.0192
79 | C82G A111G A120G A145G C150A C169U U176C | 0.0177
80 | C82G A111G A120G A145G C150A C169U U176A | 0.0177
81 | C82G A111G A120G A145G C150A C169U U176G | 0.00809
82 | C82G A111G A120G A145G C150G C169U U176C | 0.0129
83 | C82G A111G A120G A145G C150G C169U U176A | 0.0127
